Experimental findings from patent US12583915 (MEDPACTO, dated 2026) are described below.

The target of test [1] is T1, human BAG2 protein (human, UniProt O95816 2-211).
T1 construct: also called BAG2 polypeptide; Bcl-2-associated athanogene 2
The test can be described thus: Western blot on MDA-MB-231 cell lysate. On the technique in general: Immunoblotting shows a protein as a band on a membrane.

In test [2] the target is T2, GST-Bag Full (GST fusion of full-length human BAG2) (human, UniProt O95816 1-211).
T2 construct: Expressed in HEK293T cells, tested in cell lysate by immunoblot; band at about 50 kDa; also called GST-Bag Full vector product; full-length BAG2 polypeptide; not shown: GST tag from the pcDNA3.1+/GST vector, about 26 kDa
T2 sequence (O95816 whole entry, the tested form may be a part): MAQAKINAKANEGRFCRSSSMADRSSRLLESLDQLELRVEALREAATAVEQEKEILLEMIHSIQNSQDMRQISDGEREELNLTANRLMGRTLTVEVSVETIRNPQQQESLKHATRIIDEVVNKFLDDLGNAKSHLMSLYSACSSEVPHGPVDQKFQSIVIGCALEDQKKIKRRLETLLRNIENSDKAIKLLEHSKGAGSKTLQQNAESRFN
The test can be described thus: immunoblot on lysate of HEK293T cells transfected with GST-Bag Full vector. The text has this:
Next, for domain mapping of the BAG2 antigen to which the ten antibodies identified in Section 1 above, cells, to which the GST-Empty vector (pcDNA3.1+/GST vector, NovoPro Bioscience Inc. China) having a molecular weight of about 26 kDa was introduced, was used as a negative control. GST-Bag Full vector, GST-Bag F1 vector, GST-Bag F2 vector, GST-Bag F3 vector, and GST-Bag F4 vector, each including polynucleotides encoding human BAG2 protein and polynucleotides encoding fragments of the BAG2 protein, were introduced into cells, and the cells with the vectors introduced thereinto were cultured to express the genes, and then, cell lysates were obtained. For cell lysates, immunoblotting was performed using each of the 10 antibodies. The polynucleotide encoding the human BAG2 protein has the nucleotide sequence of SEQ ID NO: 70. The GST-Bag F1, -Bag F2, -Bag F3, and -Bag F4 vectors consist of the nucleotide sequences of SEQ ID NOS: 71 to 74, respectively.
FIGS. 2A and 2B show the results of immunoblotting for the full-length BAG2 polypeptide of anti-BAG2 antibody or a fragment thereof. […] In detail, the immunoblotting was performed as follows: each of the vectors was introduced into HEK293T cells by lipofectamine transfection (Thermo Fisher Scientific, Inc., Waltham, MA, USA) method, and the obtained transformed cells were cultured at a temperature of 37° C. in DMEM (Welgene) medium containing 10% FBS, 100 U/ml penicillin and 100 µg/ml streptomycin for 30 hours, and then cells were isolated. The isolated cells were disrupted using the same method as described in connection with FIG. 1 and subjected to […] analysis on a 12% gel. For immunoblotting, after reacting for 1 hour with the same blocking solution as described in connection with FIG. 1, each of the 10 purified anti-BAG2 antibodies having a concentration of 2 mg/ml was used as a primary antibody at a dilution of 1/10000 dilution and bound to the cells. The goat anti-mouse HRP conjugate used as the secondary antibody was used at a 1/5000 dilution concentration, and Film-photosensing was carried out in the dark using EGL reagent (Amersham Pharmacia Biotech) as a substrate. Standard molecular marker sizes were expressed to confirm the size of BAG2.

The next test deals with T3, Myc-tag BAG2 (Homo sapiens (Human), UniProt O95816 1-211, limits assumed).
T3 construct: Expressed in MDA-MB-231 cells; 30 ug of lysate tested in the sandwich ELISA against cells with the Myc-tag empty vector (EV); not tied to this vector in so many words; also called BAG2 overexpressed from the Myc-tag BAG2 expression vector; OE; not shown: Myc tag
T3 sequence (O95816 whole entry): as the sequence (O95816 whole entry, the tested form may be a part) above
Kind of test: sandwich ELISA on lysate of MDA-MB-231 cells overexpressing Myc-tag BAG2 (OE) against empty vector cells (EV). Background: An ELISA detects its analyte on a solid surface through an enzyme-linked reagent.

Test [3] addresses T1, human BAG2 protein. Kind of test: selection of hybridoma clones by immunoblotting.

T1 sequence (O95816 2-211 limits assumed): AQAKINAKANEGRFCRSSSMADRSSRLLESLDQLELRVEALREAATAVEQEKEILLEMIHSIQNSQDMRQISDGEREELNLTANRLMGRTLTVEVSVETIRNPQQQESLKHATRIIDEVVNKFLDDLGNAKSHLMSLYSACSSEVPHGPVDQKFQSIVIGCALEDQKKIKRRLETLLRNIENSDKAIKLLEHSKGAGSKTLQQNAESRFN

B1: 3G8 antibody (antibody, V domains shown)
VH: QIQLVQSGPELKKPGETVKISCKASGYSFTKYGMNWVKQAPGKDIKWMGWINTNTGEATYGEEVKGRFAFSLETSASTAYLQINNLKNEDTATYFCARLGLRYLDYWGQGTTLTVSS
VL: DIVMTQSPASLVVSLGQRATISCRASKSVSTSDYSYMHWYQQKPGQPPKVLIYLASNLESGVPARFSGSGSGTDFTLNIHPVEEEDAATYYCQHNRELPPTFGAGTKLELK
notes: Mouse monoclonal antibody from a hybridoma; also called 3 GB (as misprinted); anti-BAG2 antibody 3G8
For B1, the binding result (with human BAG2 protein [1]; in test [2]; with Myc-tag BAG2) was “binds” throughout.

B2: 9B12 antibody (antibody, V domains shown)
VH: QVQLQQSGAELVRPGTSVKVSCKASGYAFTNYMIEWIKQRPGQGLEWIGVINPGSGGSYYNEKVKGKATLTADRSSSTAYMQFSSLTADDSGVYFCRIYGNYKGYFDHWGQGTTLTVSS
VL: DIVMTQSPSSMYASLGERVTITCKASQDMNSYLSWFQQKPGKSPKTLIYRANRLVDGVPSRFSGSGSGQDYSLTISSLEYEDMGIYYCLQNDEFPFTFGSGTKLEMK
notes: Mouse monoclonal antibody from a hybridoma; Capture antibody in the sandwich ELISA; also called anti-BAG2 antibody 9B12
For B2, the binding result (in the test with human BAG2 protein [1]; in test [2]; with Myc-tag BAG2) was “binds” in each case.

B3: 3B10 antibody (antibody, V domains shown)
VH: QVQLQQPGAELARPGTSVKVSCKASGHAFTNYMIEWIKQRPGQGLEWIGVINPGSGGTYYSEKVKGKATLTADRSSSTAYMQLSSLTADDSGVYFCRIYGNYKGYFDHWGQGTTLTVSS
VL: DIVMTQSPSSMYASLGERVTITCKASQDMNSYLSWFQQKPGKSPKTLIYRSNRLVDGVPSRFSGSGSGQDYSLTISSLDYEDMGIYYCLQNDEFPFTFGSGTKLEIK
notes: Mouse monoclonal antibody from a hybridoma; also called anti-BAG2 antibody 3B10
For B3, the binding result (in the test with human BAG2 protein [1]; in test [2]) was “binds” in each case.

B4: 9B3 antibody (antibody, V domains shown)
VH: EVQLQQSGAELVRPGTSVKVSCKASGYAFTNYMIEWIKQRPGQGLEWIGVINPGSGGSYYNEKVKGKATLTADKSSSTAYMQFSSLTADDSAVYFCRIYGNYKGYFDYWGQGTTLTVSS
VL: DIVMTQSPSSMYASLGERVTITCKASQDINSYLSWFQQKPGKSPKTLIYRANRLVDGVPSRFSGSGSGQDYSLTISSLEYEDMGIYYCLQNDEFPFTFGSGTKLEIK
notes: Mouse monoclonal antibody from a hybridoma; also called anti-BAG2 antibody 9B3
As to B4, the binding result (with human BAG2 protein [1]; in test [2]) was “binds” each time.

B5: 3F12 antibody (antibody, V domains shown)
VH: QVQLQESGPDLVKPSQSLSLTCTVTGYSITSGYSWHWIRQFPGNKLEWMGYIYYRGSTNYNPSLKSRISITRDTSKNQFFLLLKSVTTEDTATYYCAREAYWGQGTLVTVSA
VL: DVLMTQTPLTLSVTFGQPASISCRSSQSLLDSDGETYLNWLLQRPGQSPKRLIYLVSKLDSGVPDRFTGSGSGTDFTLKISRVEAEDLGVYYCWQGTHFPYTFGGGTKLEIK
notes: Mouse monoclonal antibody from a hybridoma; also called anti-BAG2 antibody 3F12
Turning to B5, the binding result (in the test with human BAG2 protein [3]; in test [2]; in the test with Myc-tag BAG2) was “binds” throughout.

B6: 2A11 antibody (antibody, V domains shown)
VH: QVQLQQPGAELVRPGASVTLSCKASGYTFTDYEMHWVKQTPVHGLEWIGIIDPETGGTAYNQKFKGKATLTADKSSSTAYMELRSLTSEDSAVYYCTRGKFYYSGRDYAMDYWGQGTSVTVSS
VL: DVLMTQTPLSLPVSLGDQASISCRSSQSIVHSNGNTYLEWYLQKPGQSPKLLIYKVSNRFSGVPDRFSGSGSGTDFTLKISRVEAEDLGVYFCFQGSQVPPTFGGGTKLEIK
notes: Mouse monoclonal antibody from a hybridoma; Capture antibody in the sandwich ELISA; also called anti-BAG2 antibody 2A11
As to B6, the binding result (with human BAG2 protein [3]; in test [2]; with Myc-tag BAG2) was “binds” each time.

B7: 3B5 antibody (antibody, V domains shown)
VH: EVQLQQSGPELVKPGASVKLSCKASGYSFTDYTFYWVRQSHGESLEWIGYIDPYNGGNTYNRKFKGKATLTVDKSSSTAFMHLNSLTSEDSAVYYCARGYYRYGGGGDFDYWGQGTTLTVSS
VL: DVLMTQTPLSLPVSLGDQASISCRSSQSLVHSNGNTYLHWYLQKPGQSPKLLIHKVSNRFSGVPDRFSGSGSGTDFTLKISRVEAEDLGIYFCSQNTHIPPTFAGGTKLEIK
notes: Mouse monoclonal antibody from a hybridoma; also called anti-BAG2 antibody 3B5
As for B7, the binding result (in the test with human BAG2 protein [1]; in test [2]) was “binds” throughout.

B8: 4C2 antibody (antibody, V domains shown)
VH: QVQLQQPGAELVRPGASVTLSCKASGYTFTDYEMHWVKQTPVHGLEWIGIIDPETGATAYNQKFKGKATLTADKSSSTAYMELRSLTSEDSAVYYCTRGKFYYSGRDYAMDYWGQGTSVTVSS
VL: DVLMTQTPLSLPVSLGDQASISCRSSQSIVHSNGNTYLEWYLQKPGQSPKLLFYKVSNRFSGVPDRFSGSGSGTDFTLKISRVEAEDLGVYFCFQGSQVPPTFGGGTKLEIK
notes: Mouse monoclonal antibody from a hybridoma; also called anti-BAG2 antibody 4C2
Take B8: the binding result (in the test with human BAG2 protein [1]; in test [2]) was “binds” in each case.

B9: 8C4 antibody (antibody, V domains shown)
VH: QVQLQQPGAELVRPGASVTLSCKASGYTFTDYEMHWVKQTPVHGLEWIGIIDPETAGTAYNQKFKGKATLTADKSSSTAYMELRSLTSEDSAVYYCTRGKFYYSGRDYAMDYWGQGTSVTVSS
VL: DVLMTQTPLSLPVSLGDQASISCRSSQSIVHSNGNTYLEWYLQKPGQSPKLLFYKVSNRFSGVPDRFSGSGSGTDFTLKISRVEAEDLGVYFCFQGSQVPPTFGGGTKLEIK
notes: Mouse monoclonal antibody from a hybridoma; also called 8G4 (as misprinted); anti-BAG2 antibody 8C4
As to B9, the binding result (with human BAG2 protein [1]; in test [2]; in the test with Myc-tag BAG2) was “binds” throughout.
